Positions count from the first letter of the chain named. Numbers in names are those of the source.
B1: wild-type 9°N-7 polymerase: Wild-type family B DNA polymerase from Thermococcus sp. 9°N-7 (protein, UniProt Q56366 1-775, looked up)
DNA polymerase: MILDTDYITENGKPVIRVFKKENGEFKIEYDRTFEPYFYALLKDDSAIEDVKKVTAKRHGTVVKVKRAEKVQKKFLGRPIEVWKLYFNHPQDVPAIRDRIRAHPAVVDIYEYDIPFAKRYLIDKGLIPMEGDEELTMLAFDIETLYHEGEEFGTGPILMISYADGSEARVITWKKIDLPYVDVVSTEKEMIKRFLRVVREKDPDVLITYNGDNFDFAYLKKRCEELGIKFTLGRDGSEPKIQRMGDRFAVEVKGRIHFDLYPVIRRTINLPTYTLEAVYEAVFGKPKEKVYAEEIAQAWESGEGLERVARYSMEDAKVTYELGREFFPMEAQLSRLIGQSLWDVSRSSTGNLVEWFLLRKAYKRNELAPNKPDERELARRRGGYAGGYVKEPERGLWDNIVYLDFRSLYPSIIITHNVSPDTLNREGCKEYDVAPEVGHKFCKDFPGFIPSLLGDLLEERQKIKRKMKATVDPLEKKLLDYRQRAIKILANSFYGYYGYAKARWYCKECAESVTAWGREYIEMVIRELEEKFGFKVLYADTDGLHATIPGADAETVKKKAKEFLKYINPKLPGLLELEYEGFYVRGFFVTKKKYAVIDEEGKITTRGLEIVRRDWSEIAKETQARVLEAILKHGDVEEAVRIVKEVTEKLSKYEVPPEKLVIHEQITRDLRDYKATGPHVAVAKRLAARGVKIRPGTVISYIVLKGSGRIGDRAIPADEFDPTKHRYDAEYYIENQVLPAVERILKAFGYRKEDLRYQKTKQVGLGAWLKVKGKK
B2: R743A: 9°N-7 YAV C223S exo- polymerase with alanine substitution at Arg743 in the thumb subdomain (protein)
chain: B1 DNA polymerase with D141S, E143S, C223S, L408Y, Y409A, P410V, A485L, R743A
modifications: Codon optimised thumb mutant polymerase
notes: 9°N-7 YAV C223S exo- polymerase with alanine substitution at Arg743 in the thumb subdomain

How the values were obtained:
[1] = target: DNA; details: wild-type enzyme; Southworth et al. 1996; read-out: Kd (affinity for DNA); cited from earlier work
[2] = system: 10A hairpin DNA; assay: Single base incorporation assay for purified polymerases where [DNA] is greater than [pol]; format: biochemical; details: 4 nM purified enzyme, 2 μM ffT-N3-cy3
Procedure: The activity of the purified enzyme preparations of Clone 9 polymerase (YAV C223S exo-) and the thumb sub-domain mutants K705A, R713A and R743A was measured using the single base incorporation assay as described in WO 2005/024010. The experiment was carried out such that the respective concentrations of DNA and polymerase were at a ratio of approximately 5:1. Thus, the ability of the enzyme to incorporate nucleotides into multiple DNA template molecules in a single reaction cycle was investigated. 30 minute incubations were run with 4 nM purified enzyme in the presence of 20 nM 10A hairpin DNA (^32P-labelled) and 2 μM ffT-N3-cy3, aliquots of the reaction mixture were withdrawn at 0, 15, 30, 60, 180, 480, 900 and 1800 s intervals and run on a 12% acrylamide gel.
The band intensities were quantified using Imagequant and the fluorescence intensity, converted into percentage completion (based on the relative intensities of the starting material and final product bands on the gel) plotted versus incubation time to generate the timecourses shown in FIG. 5.

[3] = system: 10A hairpin DNA; assay: Single base incorporation assay, crude enzyme preparations (normalised concentrations); format: biochemical; details: first base incorporation of ffTTP
Procedure: The activity of the crude enzyme preparations (normalised concentrations) was measured using the single base incorporation assay as described in WO 2005/024010. 10 minute incubations were run with either 30 or 3 μg/ml crude enzyme preparation in the presence of 2 μM ffT-N3-cy3 and 20 nM 10A hairpin DNA (^32P-labelled), aliquots of the reaction mixture were withdrawn at 0, 30, 60, 180 and 600 s and run on a 12% acrylamide gel.
The band intensities were quantified using Imagequant and the fluorescence intensity plotted versus incubation time to generate the time-courses shown in FIG. 4.

[4] = system: ffT-N3-cy3 incorporation into A template hairpin oligo 815; assay: Incorporation kinetics of ffT-N3-cy3 (NUNC tube assay, Michaelis plots); format: biochemical; details: 45° C., [DNA]<<[pol] or [ffNTP]
Procedure: The kinetic characterization of the enzymes was conducted using NUNC tube assay and involved the measurement of rate constants for the first order incorporation of ffT N3 cy3 where [DNA]<<[pol] or [ffNTP], at a variety of [ffTTP]. Below is described the methodology used for each of the three polymerases tested.
Six (1×8) NUNC nucleolink strips were functionalized with 2 pmoles of 5′-amino A template hairpin oligo 815 (5′ H2N-[…] ATGCACATCAGCG-3′) (SEQ ID NO: 18), according to the manufacturer's protocol.
Each strip was employed for a time-course experiment at a particular (ffT-N3-cy3). […]
Time-courses were initiated by addition of a 20 μl aliquot of 2× enzymology mix (X μM ffT-N3-cy3, 1.1 μM polymerase in enzymology buffer) pre-equilibrated at 45° C. for 2 minutes using an 8-channel multipipette in order to start reactions in individual wells at identical time-points. […] After reactions in all 8 wells stopped, strips were washed with […] high salt wash (10 mM Tris pH 8.0, 1 M NaCl, 10 mM EDTA) and then […] MilliQ water and then scanned on a Typhoon fluorescence imager (Cy3 filter, PMT=500 V). Fluorescence intensities in each well were quantified using Imagequant. Plotting the variation in Cy3 fluorescence intensity vs. time generates time-course graphs. […]

[5] = system: surface-coupled A-template hairpin (oligo 815); assay: NUNC tube assay using crude protein preparation: incorporation of ffTTP into surface-coupled hairpin; format: biochemical; details: crude enzyme, 5 μM ffT-N3-647, 45° C., 30 minutes; samples not normalised for concentration
Procedure: Small 5 ml cultures of the mutant enzymes (along with a culture of YAV C223S exo- for direct comparison) were taken through a quick purification as outlined in WO 2005/024010 up until the heat treatment step. At this point, the samples were considered to be sufficiently pure to test their activity.
The buffers for each of the crude preparations were exchanged into enzymology buffer (50 mM Tris pH 8.0, 6 mM MgSO4, 1 mM EDPA, 0.05% Tween20) using an S300 gel filtration spin-column. The samples were not normalised for concentration. The test employed was a simple incorporation of ffTTP into surface-coupled A-template hairpin. 2 pmoles of 5′-amino oligo 815 (5′-[…] […]-3′) (SEQ ID NO: 17) was coupled to a NUNC-nucleolink strip according to the manufacturers protocol.
Once washed, each well was incubated with a 20 µl aliquot of a crude enzyme preparation (identity of enzyme listed below) and 5 µM ffT-N3-647. The strip was then incubated at 45° C. for 30 minutes. The experiment was performed in duplicate. Upon completion of the 30 minute incubation, wells were washed with 3×100 µl of high salt wash buffer (10 mM Tris pH 8.0, 1M NaCl, 10 mM EDTA) and then 3×100 µl of MilliQ water. Strips were scanned on a typhoon fluorescence imager CY5 filter, PMT=450 V).
The fluorescence density is proportional to the amount of ffTTP incorporation—the darker the well, the greater the level of incorporation. […]

| Molecule | Kd [1] | amplitude of the burst (exponential) phase, percentage completion ([2]; 20 nM 10A hairpin DNA (ratio 5:1)) | observed rate constant kobs for the burst phase ([2]; crude fitting of timecourses, 20 nM 10A hairpin DNA) | activity relative to YAV (in words) [3] | kpol [4] | improvement in level of incorporation over clone 9 [5] |
| --- | --- | --- | --- | --- | --- | --- |
| B1 | 0.05 nM |  |  |  |  |  |
| B2 |  | ~90% | ~0.004 s⁻¹ | comparable activities to YAV | 0.068 s⁻¹ | ~45% |

— US10059928B2, “Polymerases” (Illumina Cambridge Limited, priority 2005, dated 2018)
